Columns and labels:
[1] = tested on: T1, Glutathione S-transferase (GST)-fused cytoplasmic domain of LRP6
T1 sequence: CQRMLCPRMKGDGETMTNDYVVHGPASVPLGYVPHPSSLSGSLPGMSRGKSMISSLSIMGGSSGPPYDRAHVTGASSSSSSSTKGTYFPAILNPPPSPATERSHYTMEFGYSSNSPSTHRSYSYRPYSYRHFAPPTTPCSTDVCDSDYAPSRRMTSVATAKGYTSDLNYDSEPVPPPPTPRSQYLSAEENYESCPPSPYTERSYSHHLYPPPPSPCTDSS

[2] = tested on: GST-fused cytoplasmic domain of LRP6 with the GSK-3 site mutated (Ser1544 to Ala)
[3] = tested on: GST-fused cytoplasmic domain of LRP6 with the PKA site mutated (Thr1548 to Ala)
LRP6-Gαs interaction = assay: Coimmunoprecipitation and Western blotting of LRP6-associated G proteins in HEK 293 cells; assay type: cell-based, human
Protocol: (§1) Cell Culture, Transfections, Coimmunoprecipitation, and Western Blotting Analysis. HEK293,UMR-106,C2C12, and MEF cells were maintained in Dulbecco's modified Eagle's medium (DMEM) with 10% fetal calf serum (FCS). Transfections were performed with Lipofectamine reagent (Invitrogen). Immunoprecipitations and Western blotting analysis of cell lysates were performed as described previously (37). Briefly, cells were lysed in immunoprecipitation buffer [50 mM tris-HCl (pH7.5), 150 mM NaCl, 1% Triton X-100, and 0.5% sodium deoxycholate containing protease inhibitors. The lysates were subjected to immunoprecipitation by incubation with the appropriate antibodies followed by absorption on protein G-Sepharose. The immunoprecipitates were separated by SDS-polyacrylamide gel electrophoresis (SDS-PAGE) and transferred onto a nitrocellulose membrane. Western blots were characterized with the SuperSignal West Femto Substrate system (Pierce, Thermo Fisher Scientific Inc.). Primary antibodies used for Western blotting analysis and immunoprecipitations included mouse antibody against the FLAG tag (M2, Sigma-Aldrich), rabbit antibody against VSVG (Covance), mouse antibody against the HA tag (16B12, Covance), rabbit antibody against PTH1R, (PRB-640P, Covance), rabbit antibodies against CREB and phosphorylated CREB (pCREB) (both from Upstate), and rabbit antibody against Gαs and mouse antibody against Gb1 (both from Santa Cruz Biotechnology).

LRP5-Gαs interaction = assay: Coimmunoprecipitation and Western blotting of LRP5-associated Gαs in HEK 293 cells; assay type: cell-based, human; settings: HEK 293 cells with PTH1R and HA-tagged LRP5, PTH(1-34) 50 nM
Protocol: as §1, with “Primary antibodies used for Western blotting analysis and immunoprecipitations included mouse antibody against the FLAG tag (M2, Sigma-Aldrich), rabbit antibody against VSVG (Covance), mouse antibody against the HA tag (16B12, Covance), rabbit antibody against PTH1R, (PRB-640P, Covance), rabbit antibodies against CREB and phosphorylated CREB (pCREB) (both from Upstate), and rabbit antibody against Gαs and mouse antibody against Gb1 (both from Santa Cruz Biotechnology).” left out

cAMP production = assay: ICUE3 FRET biosensor, cAMP kinetics in live HEK 293 cells; assay type: cell-based, human; settings: PTH(1-34) 50 nM
Description: Detection of the Temporal Dynamics of cAMP Signaling in Living Cells. The binding of cAMP to Epac induces a conformational change that liberates the catalytic domain of Epac from intrasubunit allosteric inhibition (42). A chimeric protein (ICUE3) generated by fusing the N terminus of a truncated form of Epac to enhanced CFP (ECFP) and the C terminus of Epac to citrine, an improved version of yellow fluorescent protein (YFP), was produced as previously described (43). Sandwiching these conformationally responsive elements of Epac between a FRET pair (citrine and ECFP) enables cAMP production and degradation to be monitored by detecting changes in FRET. Therefore, changes in cAMP could be monitored in real time in single live cells. Experiments were performed as previously described (41). […] The ratios of cyan-to-yellow emissions were then calculated at different time points and normalized by dividing all of the ratios by the emission ratio just before stimulation, thereby setting the basal emission ratio to 1. […] The fluorescence intensities of ECFP before (Fda) and after (Fd) citrine photobleaching and the equation E=1−(Fda/Fd) were used to calculate the FRET efficiency.

[4] = tested on: Glutathione S-transferase (GST)-fused cytoplasmic domain of LRP5 [GST: P08515]
[5] = target: T2, VSVG-tagged LRP6 (wild type) (human, UniProt O75581 20-1613); assay: co-immunoprecipitation and Western blotting, HEK 293 cells
T2 construct: also called WT-LRP6; WT LRP6; not shown: VSVG tag

[6] = lysis buffer containing AlF4− (100 mM AlCl3, 10 mM NaF)

Glutathione S-transferase (GST)-fused cytoplasmic domain of LRP5 [GST: P08515], sequence (P08515 whole entry, looked up, the tested form may be a part): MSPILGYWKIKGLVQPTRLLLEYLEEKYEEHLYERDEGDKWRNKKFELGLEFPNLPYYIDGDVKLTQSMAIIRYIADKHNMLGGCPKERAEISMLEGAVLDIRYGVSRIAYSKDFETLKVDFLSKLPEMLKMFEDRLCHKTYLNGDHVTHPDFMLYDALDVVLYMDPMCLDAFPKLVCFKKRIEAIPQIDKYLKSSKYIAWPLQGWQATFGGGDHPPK

Molecule: Recombinant GSK-3
- in vitro kinase assay (PKA with cold ATP, then GSK-3 with [γ-32P]ATP) [1]: pretreatment with recombinant PKA enhanced the phosphorylation of LRP6 by GSK-3
- in vitro kinase assay (sequential PKA and GSK-3) [2]: Both mutants abolished the phosphorylation of LRP6 by GSK-3
- in vitro kinase assay (sequential PKA and GSK-3) [3]: Both mutants abolished the phosphorylation of LRP6 by GSK-3

Molecule: 5′-UGCCAAGAAGGCUGAGUCG-3′ (listed as RNA, chemistry not given here) [siRNA specific for axin]
- PTH-induced interaction between Gαs and LRP6 (LRP6-Gαs interaction; knockdown of axin vs scrambled control siRNA, PTH(1-34) 50 nM): not affected

Molecule: PTH(1-34): a C-terminal-truncated synthetic analog of PTH that has an anabolic effect on bone formation in humans (SVSEIQLMHNLGKHLNSMERVEWLRKKLQDVHNF)
- association of Gαs with LRP5 (LRP5-Gαs interaction): did not enhance
- interaction between Gαs and LRP6 (LRP6-Gαs interaction; HEK 293 cells with PTH1R and VSVG-tagged LRP6, PTH(1-34) 50 nM, within S min of treatment, further enhanced at 30 min): enhanced
- time to plateau of the cyan-to-yellow emission ratio (cAMP production): 4 to 6 min
- time to rapid change in the ratio of cyan-to-yellow emissions (indication of cAMP production) (cAMP production): ≤ 30 s

Molecule: Recombinant catalytic subunit of PKA
- in vitro kinase assay ([γ-32P]ATP, PhosphorImager) [1]: the intracellular domain of LRP6 (LRP6C) was phosphorylated by PKA
- in vitro kinase assay ([γ-32P]ATP, PhosphorImager) [4]: the intracellular domain of LRP5 was not phosphorylated
- in vitro kinase assay ([γ-32P]ATP, PhosphorImager) [3]: Only alteration of Thr^1548 abolished the phosphorylation of LRP6C by PKA

Molecule: [F][Al-]([F])([F])[F] [AlF4^−]
- interaction of LRP6 with Gαs (LRP6-Gαs interaction; [6]): blocked
- interaction of LRP6 with Gβ1 (LRP6-Gαs interaction; [6]): blocked

B1: Gαs (endogenous, from HEK 293 cell lysates) (other, human, UniProt P63092 2-394, looked up)
chain: GCLGNSKTEDQRNEEKAQREANKKIEKQLQKDKQVYRATHRLLLLGAGESGKSTIVKQMRILHVNGFNGEGGEEDPQAARSNSDGEKATKVQDIKNNLKEAIETIVAAMSNLVPPVELANPENQFRVDYILSVMNVPDFDFPPEFYEHAKALWEDEGVRACYERSNEYQLIDCAQYFLDKIDVIKQADYVPSDQDLLRCRVLTSGIFETKFQVDKVNFHMFDVGGQRDERRKWIQCFNDVTAIIFVVASSSYNMVIREDNQTNRLQEALNLFKSIWNNRWLRTISVILFLNKQDLLAEKVLAGKSKIEDYFPEFARYTTPEDATPEPGEDPRVTRAKYFIRDEFLRISTASGDGRHYCYPHFTCAVDTENIRRVFNDCRDIIQRMHLRQYELL
notes: Present in whole-cell lysate, so other proteins (Gβγ) may be associated with it; also called Gas; αs subunit of the G protein
- binding result [5]: binds

— patent publication US20120294871A1, “MODULATION OF GPCR-MEDIATED CAMP PRODUCTION THROUGH LRP6 AND ITS THERAPEUTIC APPLICATION” (THE JOHNS HOPKINS UNIVERSITY, priority 2011, published 2012)
